Measured values from PMC9482650, “Quantitative fragmentomics allow affinity mapping of interactomes” (Nature Communications, 2022).
One block for each binder: values may come before it.

Columns and labels:
Assay in all cases: holdup assay
Design in all cases: key: below the threshold = too weak to quantify, mostly under pKd 3.1 to 4
APBA1_2, Q02410 = molecular target: T1, APBA1_2, Q02410
T1 sequence (Q02410 742-832, limits assumed, looked up): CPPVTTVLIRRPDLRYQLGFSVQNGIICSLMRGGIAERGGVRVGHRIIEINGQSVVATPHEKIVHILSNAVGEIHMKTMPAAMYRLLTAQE

DFNB31_3, Q9P202 = molecular target: T2, DFNB31_3, Q9P202
T2 sequence (Q9P202 811-907, limits assumed, looked up): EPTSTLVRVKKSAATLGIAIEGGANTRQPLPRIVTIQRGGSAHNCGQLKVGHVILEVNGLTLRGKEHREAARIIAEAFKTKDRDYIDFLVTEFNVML

DLG2_3, Q15700 = molecular target: DLG2_3, Q15700
FRMPD1, Q5SYB0 = molecular target: T3, FRMPD1, Q5SYB0
T3 sequence (Q5SYB0 52-145, limits assumed, looked up): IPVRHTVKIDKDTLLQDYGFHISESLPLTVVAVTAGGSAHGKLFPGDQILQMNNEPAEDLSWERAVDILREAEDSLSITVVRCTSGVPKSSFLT

FRMPD2_1, Q68DX3 = molecular target: FRMPD2_1, Q68DX3
FRMPD3, Q5JV73 = molecular target: FRMPD3, Q5JV73
FRMPD4, Q14CM0 = molecular target: FRMPD4, Q14CM0
GRIP1_4, Q9Y3R0 = molecular target: T4, GRIP1_4, Q9Y3R0
T4 sequence (Q9Y3R0 467-571, limits assumed, looked up): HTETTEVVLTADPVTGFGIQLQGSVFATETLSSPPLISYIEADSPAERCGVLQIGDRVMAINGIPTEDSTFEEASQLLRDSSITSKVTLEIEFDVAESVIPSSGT

GRIP1_5, Q9Y3R0 = molecular target: T5, GRIP1_5, Q9Y3R0
T5 sequence (Q9Y3R0 568-668, limits assumed, looked up): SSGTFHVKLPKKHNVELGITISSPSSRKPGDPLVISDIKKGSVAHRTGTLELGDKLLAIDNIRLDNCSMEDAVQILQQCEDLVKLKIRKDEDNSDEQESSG

Inadl_1, Q8NI35 = molecular target: Inadl_1, Q8NI35
Inadl_10, Q8NI35 = molecular target: Inadl_10, Q8NI35
Inadl_4, Q8NI35 = molecular target: Inadl_4, Q8NI35
Inadl_6, Q8NI35 = molecular target: Inadl_6, Q8NI35
LNX1_3, Q8TBB1 = molecular target: LNX1_3, Q8TBB1
LNX2_2, Q8N448 = molecular target: T6, LNX2_2, Q8N448
T6 sequence (Q8N448 334-432, limits assumed, looked up): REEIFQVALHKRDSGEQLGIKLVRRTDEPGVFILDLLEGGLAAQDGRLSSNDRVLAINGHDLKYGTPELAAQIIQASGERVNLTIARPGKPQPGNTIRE

MAGI2_3, Q86UL8 = molecular target: MAGI2_3, Q86UL8
MAGI3_2, Q5TCQ9 = molecular target: MAGI3_2, Q5TCQ9
MPDZ_5, O75970 = molecular target: T7, MPDZ_5, O75970
T7 sequence (O75970 695-796, limits assumed, looked up): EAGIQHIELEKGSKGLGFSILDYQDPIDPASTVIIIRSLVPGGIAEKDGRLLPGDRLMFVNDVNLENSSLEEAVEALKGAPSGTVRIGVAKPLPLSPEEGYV

NHERF4_2, Q86UT5 = molecular target: NHERF4_2, Q86UT5
NOS1, P29475 = molecular target: NOS1, P29475
PARD3B_1, Q8TEW8 = molecular target: T8, PARD3B_1, Q8TEW8
T8 sequence (Q8TEW8 196-299, limits assumed, looked up): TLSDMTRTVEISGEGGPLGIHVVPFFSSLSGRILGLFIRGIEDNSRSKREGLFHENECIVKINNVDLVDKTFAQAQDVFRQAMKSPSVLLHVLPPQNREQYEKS

PDLIM1, O00151 = molecular target: PDLIM1, O00151
PDZD7_3, Q9H5P4 = molecular target: T9, PDZD7_3, Q9H5P4
T9 sequence (Q9H5P4 857-944, limits assumed, looked up): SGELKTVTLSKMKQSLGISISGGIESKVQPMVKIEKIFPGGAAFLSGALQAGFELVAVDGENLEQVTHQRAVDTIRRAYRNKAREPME

PDZRN4_1, Q6ZMN7 = molecular target: PDZRN4_1, Q6ZMN7
PTPN3, P26045 = molecular target: PTPN3, P26045
SHANK1, Q9Y566 = molecular target: T10, SHANK1, Q9Y566
T10 sequence (Q9Y566 658-767, limits assumed, looked up): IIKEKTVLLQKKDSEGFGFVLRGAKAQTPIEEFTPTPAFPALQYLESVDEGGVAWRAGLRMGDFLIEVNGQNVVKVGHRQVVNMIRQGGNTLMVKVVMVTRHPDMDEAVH

SIPA1L2, Q9P2F8 = molecular target: T11, SIPA1L2, Q9P2F8
T11 sequence (Q9P2F8 945-1036, limits assumed, looked up): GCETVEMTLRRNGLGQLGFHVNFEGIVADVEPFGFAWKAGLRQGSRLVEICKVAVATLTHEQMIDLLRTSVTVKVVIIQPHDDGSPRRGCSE

[1] = plain residues with an end cap or a label only (N-terminal biotin on a linker: ado-ado)
[2] = plain residues with an end cap or a label only (N-terminal biotin on a linker: ttds)

Inadl_1, Q8NI35, sequence (Q8NI35 113-229): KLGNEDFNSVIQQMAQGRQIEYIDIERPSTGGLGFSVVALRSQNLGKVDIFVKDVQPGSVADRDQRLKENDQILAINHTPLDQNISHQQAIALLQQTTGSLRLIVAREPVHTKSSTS
LNX1_3, Q8TBB1, sequence (Q8TBB1 500-596): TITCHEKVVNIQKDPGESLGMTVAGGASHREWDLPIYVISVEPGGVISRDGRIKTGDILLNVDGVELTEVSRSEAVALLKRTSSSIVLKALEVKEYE
NOS1, P29475, sequence (P29475 9-101): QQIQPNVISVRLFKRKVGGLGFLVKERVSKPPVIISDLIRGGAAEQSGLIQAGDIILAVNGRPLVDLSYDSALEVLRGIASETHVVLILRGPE
NHERF4_2, Q86UT5, sequence (Q86UT5 220-308): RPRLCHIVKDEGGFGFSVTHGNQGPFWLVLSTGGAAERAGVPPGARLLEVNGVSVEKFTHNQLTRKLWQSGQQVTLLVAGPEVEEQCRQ
MAGI3_2, Q5TCQ9, sequence (Q5TCQ9 398-503): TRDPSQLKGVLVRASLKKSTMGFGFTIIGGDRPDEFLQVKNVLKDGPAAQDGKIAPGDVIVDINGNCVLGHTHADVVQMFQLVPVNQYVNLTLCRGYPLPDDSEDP
FRMPD3, Q5JV73, sequence (Q5JV73 12-100): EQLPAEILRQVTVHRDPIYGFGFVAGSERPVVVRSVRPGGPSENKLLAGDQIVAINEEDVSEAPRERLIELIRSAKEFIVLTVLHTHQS
PDZRN4_1, Q6ZMN7, sequence (Q6ZMN7 213-318): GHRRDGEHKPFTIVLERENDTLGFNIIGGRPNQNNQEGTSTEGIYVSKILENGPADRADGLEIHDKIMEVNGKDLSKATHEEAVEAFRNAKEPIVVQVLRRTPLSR
Inadl_6, Q8NI35, sequence (Q8NI35 1058-1167): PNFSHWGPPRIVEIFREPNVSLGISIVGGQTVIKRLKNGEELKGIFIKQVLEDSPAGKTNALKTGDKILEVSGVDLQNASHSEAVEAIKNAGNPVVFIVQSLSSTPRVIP
PTPN3, P26045, sequence (P26045 505-587): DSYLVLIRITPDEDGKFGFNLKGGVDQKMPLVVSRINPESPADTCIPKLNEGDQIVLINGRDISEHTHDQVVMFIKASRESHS
PDLIM1, O00151, sequence (O00151 1-87): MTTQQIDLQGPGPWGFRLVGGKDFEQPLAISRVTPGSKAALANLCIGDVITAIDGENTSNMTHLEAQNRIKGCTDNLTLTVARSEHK
FRMPD4, Q14CM0, sequence (Q14CM0 67-160): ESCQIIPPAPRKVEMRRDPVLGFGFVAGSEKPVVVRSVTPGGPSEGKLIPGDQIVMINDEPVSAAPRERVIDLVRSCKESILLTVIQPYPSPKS
MAGI2_3, Q86UL8, sequence (Q86UL8 600-682): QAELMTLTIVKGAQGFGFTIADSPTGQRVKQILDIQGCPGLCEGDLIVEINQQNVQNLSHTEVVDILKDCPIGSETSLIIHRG
FRMPD2_1, Q68DX3, sequence (Q68DX3 770-861): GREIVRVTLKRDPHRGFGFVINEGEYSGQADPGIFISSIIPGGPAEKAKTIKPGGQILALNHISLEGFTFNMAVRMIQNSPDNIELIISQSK
Inadl_4, Q8NI35, sequence (Q8NI35 547-651): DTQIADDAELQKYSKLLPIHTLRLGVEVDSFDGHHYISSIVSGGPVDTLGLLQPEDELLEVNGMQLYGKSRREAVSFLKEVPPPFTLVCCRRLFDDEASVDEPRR
Inadl_10, Q8NI35, sequence (Q8NI35 1673-1763): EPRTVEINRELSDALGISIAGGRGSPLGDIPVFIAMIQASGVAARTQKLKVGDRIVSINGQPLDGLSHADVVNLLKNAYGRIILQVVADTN

pKd (APBA1_2, Q02410; [1]): 4.02
pKd (DFNB31_3, Q9P202; [1]): 3.82
pKd (DLG2_3, Q15700; [1]): below the threshold
pKd (FRMPD1, Q5SYB0; [1]): below the threshold
pKd (FRMPD2_1, Q68DX3; [1]): 3.69
pKd (FRMPD3, Q5JV73; [1]): 3.9
pKd (FRMPD4, Q14CM0; [1]): 4.18
pKd (GRIP1_4, Q9Y3R0; [1]): below the threshold
pKd (GRIP1_5, Q9Y3R0; [1]): below the threshold
pKd (Inadl_1, Q8NI35; [1]): 3.51
pKd (Inadl_10, Q8NI35; [1]): below the threshold
pKd (Inadl_4, Q8NI35; [1]): below the threshold
pKd (Inadl_6, Q8NI35; [1]): below the threshold
pKd (LNX1_3, Q8TBB1; [1]): 3.99
pKd (LNX2_2, Q8N448; [1]): 4.7
pKd (MAGI2_3, Q86UL8; [1]): below the threshold
pKd (MAGI3_2, Q5TCQ9; [1]): 4.63
pKd (MPDZ_5, O75970; [1]): 4.34
pKd (NHERF4_2, Q86UT5; [1]): below the threshold
pKd (NOS1, P29475; [1]): 3.88
pKd (PARD3B_1, Q8TEW8; [1]): 3.84
pKd (PDLIM1, O00151; [1]): below the threshold
pKd (PDZD7_3, Q9H5P4; [1]): below the threshold
pKd (PDZRN4_1, Q6ZMN7; [1]): below the threshold
pKd (PTPN3, P26045; [1]): 4.28
pKd (SHANK1, Q9Y566; [1]): below the threshold
pKd (SIPA1L2, Q9P2F8; [1]): below the threshold
Binder: QKNKDKEYYV [NRXN3_rs746444206, Q9Y4C0]

pKd (APBA1_2, Q02410; [1]): below the threshold
pKd (DFNB31_3, Q9P202; [1]): 3.67
pKd (DLG2_3, Q15700; [1]): 4.54
pKd (FRMPD1, Q5SYB0; [1]): below the threshold
pKd (FRMPD2_1, Q68DX3; [1]): below the threshold
pKd (FRMPD3, Q5JV73; [1]): below the threshold
pKd (FRMPD4, Q14CM0; [1]): below the threshold
pKd (GRIP1_4, Q9Y3R0; [1]): below the threshold
pKd (GRIP1_5, Q9Y3R0; [1]): below the threshold
pKd (Inadl_1, Q8NI35; [1]): below the threshold
pKd (Inadl_10, Q8NI35; [1]): below the threshold
pKd (Inadl_4, Q8NI35; [1]): below the threshold
pKd (Inadl_6, Q8NI35; [1]): below the threshold
pKd (LNX1_3, Q8TBB1; [1]): below the threshold
pKd (LNX2_2, Q8N448; [1]): below the threshold
pKd (MAGI2_3, Q86UL8; [1]): 3.51
pKd (MAGI3_2, Q5TCQ9; [1]): 4.79
pKd (MPDZ_5, O75970; [1]): below the threshold
pKd (NHERF4_2, Q86UT5; [1]): below the threshold
pKd (NOS1, P29475; [1]): 4.08
pKd (PARD3B_1, Q8TEW8; [1]): below the threshold
pKd (PDLIM1, O00151; [1]): below the threshold
pKd (PDZD7_3, Q9H5P4; [1]): 4.38
pKd (PDZRN4_1, Q6ZMN7; [1]): below the threshold
pKd (PTPN3, P26045; [1]): 4.49
pKd (SHANK1, Q9Y566; [1]): below the threshold
pKd (SIPA1L2, Q9P2F8; [1]): below the threshold
Binder: RGGFGRQTQI [NCBP2L, A6PVI3]

pKd (APBA1_2, Q02410; [2]): 3.71
pKd (DFNB31_3, Q9P202; [2]): below the threshold
pKd (DLG2_3, Q15700; [2]): 3.73
pKd (FRMPD1, Q5SYB0; [2]): 3.73
pKd (FRMPD2_1, Q68DX3; [2]): below the threshold
pKd (FRMPD3, Q5JV73; [2]): below the threshold
pKd (FRMPD4, Q14CM0; [2]): below the threshold
pKd (GRIP1_4, Q9Y3R0; [2]): below the threshold
pKd (GRIP1_5, Q9Y3R0; [2]): below the threshold
pKd (Inadl_1, Q8NI35; [2]): below the threshold
pKd (Inadl_10, Q8NI35; [2]): below the threshold
pKd (Inadl_4, Q8NI35; [2]): below the threshold
pKd (Inadl_6, Q8NI35; [2]): below the threshold
pKd (LNX1_3, Q8TBB1; [2]): below the threshold
pKd (LNX2_2, Q8N448; [2]): below the threshold
pKd (MAGI2_3, Q86UL8; [2]): below the threshold
pKd (MAGI3_2, Q5TCQ9; [2]): 3.55
pKd (MPDZ_5, O75970; [2]): below the threshold
pKd (NHERF4_2, Q86UT5; [2]): below the threshold
pKd (NOS1, P29475; [2]): below the threshold
pKd (PARD3B_1, Q8TEW8; [2]): below the threshold
pKd (PDLIM1, O00151; [2]): below the threshold
pKd (PDZD7_3, Q9H5P4; [2]): below the threshold
pKd (PDZRN4_1, Q6ZMN7; [2]): below the threshold
pKd (PTPN3, P26045; [2]): below the threshold
pKd (SHANK1, Q9Y566; [2]): 4.11
pKd (SIPA1L2, Q9P2F8; [2]): below the threshold
Binder: DPLTPSRSQL [DGKK, Q5KSL6]
